The text below walks through data of patent EP1073891B1, “METHOD OF PREDICTING RECEPTOR MODULATING ACTIVITY” (Duke University, priority 1998, dated 1999).

Assay [1] in a line: In vivo tissue pharmacology of antiestrogen (uterus, bone, cardiovascular system). The conditions noted are these: assayed in vivo.
The subject of another assay is MCF-7 cell xenografts. As to the kind of experiment: Growth of MCF-7 cell xenografts in A-thymic nude mice. It counts as in vivo.
For a further assay, the system named is ER. It counts as cell-based.
Assay [2] concerns the target T1, ERα (Homo sapiens, UniProt P03372).
T1 sequence (P03372 1-595): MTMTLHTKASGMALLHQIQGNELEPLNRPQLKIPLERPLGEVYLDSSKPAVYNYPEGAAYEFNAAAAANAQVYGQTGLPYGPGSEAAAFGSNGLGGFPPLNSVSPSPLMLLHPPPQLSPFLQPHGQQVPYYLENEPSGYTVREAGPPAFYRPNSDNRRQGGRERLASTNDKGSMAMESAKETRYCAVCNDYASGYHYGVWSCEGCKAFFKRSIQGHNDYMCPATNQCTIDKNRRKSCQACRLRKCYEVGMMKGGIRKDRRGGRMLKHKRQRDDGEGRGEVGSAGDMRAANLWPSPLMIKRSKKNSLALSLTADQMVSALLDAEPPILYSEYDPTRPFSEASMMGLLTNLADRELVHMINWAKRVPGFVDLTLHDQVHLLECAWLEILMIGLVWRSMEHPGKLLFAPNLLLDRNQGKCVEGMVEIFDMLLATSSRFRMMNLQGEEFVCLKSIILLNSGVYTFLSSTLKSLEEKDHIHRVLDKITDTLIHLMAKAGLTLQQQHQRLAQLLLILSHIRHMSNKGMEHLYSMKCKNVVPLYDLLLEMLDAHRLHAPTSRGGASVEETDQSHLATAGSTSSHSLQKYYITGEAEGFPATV
It counts as binding. The arrangement: purchased PanVera Corporation, Madison, WI. The conditions noted are these: Table 14, ERα and ERβ; progesterone 1 µM. As to the method: Oligonucleotides corresponding to the vitellogenin ERE, biotin-[…] (forward) and biotin-[…] (reverse), were synthesized by Genosys.
These assays were conducted by phage ELISA.
Res. Treat. […] Jordan, Pharmacological Rev. […] And Metab.
Bound phage were detected as described previously.

In assay [3] the target is T2, estrogen receptor α (ERα) (Homo sapiens, UniProt P03372).
T2 construct: The full length estrogen receptor was subcloned in frame into the EcoRI and XhoI sites of pJG4-5; expressed in transfected cells; host or cells: Saccharomyces cerevisiae EGY48
T2 sequence (P03372 1-595): T1 sequence (P03372 1-595)
As to the kind of experiment: LexA yeast two hybrid, β-galactosidase activity assay (Example 3). It counts as cell-based. From the text: The LexA system that we employ utilizes a bacterial DNA binding protein domain, LexA, and a bacterially derived transcriptional activation sequence, B42. Proteins or peptides of interest are fused in frame with these domains and expressed using episomal plasmids in a yeast cell. The interactions between these proteins/peptides of interest are registered by monitoring the level of the reporter gene product, β-galactosidase, by an enzymatic assay. The differences in the levels of β-galactosidase activities reflect the relative strengths of the protein interactions.
The yeast strains used in this study was EGY48 (MAT a trp1 his3 ura3 leu2::61exAops-LEU2) purchased from OriGeneTechnologies for yeast two hybrid analysis. This strain contains 6 LexA operators upstream of the LEU2 gene in the yeast genome and provides high sensitivity in detecting protein-protein interactions in the LexA two hybrid system. The plasmids used in this study were pEG202 (LexA-DNA binding domain), pJG4-5 (B42-activation domain), and the plasmid containing a β-galactosidase reporter, pJK103 (OriGene Technologies). The full length estrogen receptor was subcloned in frame into the EcoRI and XhoI sites of pJG4-5 to generate an ERα-B42 activation domain fusion. ERα was subcloned in the activation domain plasmid because ERα was able to autoactivate reporters when fused to the LexA DNA binding domain.
The peptide sequences used in this study were generated from synthetic oligos filled in by T7 Sequenase (Life Science) and subcloned into the EcoRI-XhoI sites of pEG202. The synthetic oligos were: [formula] [formula] [formula] [formula] The complementary synthetic oligo used to generate double stranded DNA was 3'XhoPrim, 5'-[…]. Each 5'-oligo was annealed to the 3'-oligo by heating to 90 °C for 15 minutes and cooled slowly to 35 °C. T7 sequenase was added and the fill-in reaction allowed to proceed at 30 °C for 30 minutes. The reaction was terminated by heat denaturing the enzyme at 65 °C for 1 hour, restriction digests were performed and the resulting DNA fragments subcloned into pEG202 to generate peptide-LexA DNA binding domain fusions.
The culture was diluted to ~2x10^6 cells/ml in the same media and allowed to grow at 30 °C until the cultures reached a density of ~1x10^7 cells/ml (∼4 hours). The yeast cells were pelleted by centurifugation, washed with extraction buffer (60 mM Na2HPO4, 40 mMNaH2PO4, 10 mM KCl, 1 mM MgSO4, 1mM PMSF, 7 mM 2-mercaptoethanol) and suspended in 200 µl of extraction buffer. 100 µl of acid-washed glass beads were added and cells were lysed by vigorous agitation for 10 minutes at 4 °C. Cellular debris was pelleted by centrifugation and the supernatant transferred to a clean tube. 10 µg of total cellular protein was diluted into complete Z buffer (60 mM Na2HPO4, 40 mMNaH2PO4 , 10 mM KCl, 1 mM MgSO4, 7 mM 2-mercaptoethanol) to a volume of 100 µl in a 96-well microplate. 80 µg of o-nitrophenyl-β-D-pyranoside (ONPG) in 20 µl was added to each well to initiate color development.
10µg of each protein extract was assayed for β-galactosidase activity using o-nitrophenyl-b-D-pyranoside as substrate. Activity units are defied as 1000* Abs405/minutes/mg/protein.
Values are in beta-galactosidase units (MOD/min/mg)

A further assay deals with T3, full length ER-α (Homo sapiens, UniProt P03372).
T3 construct: Baculovirus expressed full length ER-α; host or cells: baculovirus expression
T3 sequence (P03372 1-595): T1 sequence (P03372 1-595)
As to the kind of experiment: Affinity selection and phage ELISA of X7-LXXLL-X7 library on estradiol treated ER (Example 101.1). It counts as binding. As to the method: M13 phage-based random peptide libraries were incubated with target proteins in the wells, ER binding phage were retained while the unbound phage were washed away. Bound phage were eluted by low pH buffer, amplified in DH5αF' cells and subjected to subsequent round of selection. The selection processes were repeated 2-3 times to enrich for EB bonding phage. Individual phage were plaque purified, amplified and their binding characteristics were examined by ELISA.

The target in a further assay is T4, full length ER (Homo sapiens, UniProt P03372).
T4 construct: amino terminal domain (1-184) fused to GST, and the full length ER; purchased PanVera Corporation, Madison, WI
T4 sequence (P03372 1-595): T1 sequence (P03372 1-595)
As to the kind of experiment: Mapping of probe binding sites, phage ELISA on directly immobilized receptor. As to the method:
Assays were conducted using the format described in Example 2.3, except that the domains were directly immobilized on the plastic surface of the well. Assays were conducted as for phage ELISA (Ex. 2.3).
In general terms: ELISA stands for enzyme-linked immunosorbent assay.

The target in assay [4] is T1, ERα. Nature of the assay: Phage ELISA on plastic-immobilized ER, with or without estradiol, agonists or SERMs (Examples 1.3a, 1.4). It counts as binding. The arrangement: purchased PanVera Corporation, Madison, WI. From the text: ER alpha (Panvera Corp.) was immobilized on Immulon 4 plastic plates (Dynatech) for the phage affinity selection as described in patent application Fowlkes, 09/050,359. Peptide sequences obtained for binding to the unliganded (unactivated) receptor are listed below (Table 1).
Phage expressing distinct peptide sequences were classified according to a number of different parameters.
The effect of agonists and SERMs on the binding of phage from each of the 5 classes described above was investigated.
The following fingerprints were identified (Table 6). The data are based on the relative change in binding (as determined by an increase or decrease in absorbance) compared to the unliganded receptor. The number of + or - signs indicates the degree and the direction of the change in signal; +/- indicates no significant change.

As to `CC/C(=C(\c1ccccc1)c1ccc(/C=C/C(=O)O)cc1)c1ccccc1` [GW5638], in assay [1], the “activity in bone and the cardiovascular system” value is given as “functions as an estrogen”; the uterotrophic activity entry was “does not display uterotrophic activity”. The “growth of MCF-7 cell xenografts” value with MCF-7 cell xenografts is listed as “effectively inhibited”. Besides, the “AF-1 and AF-2 agonist activity” value with ER was “devoid of AF-1 and AF-2 agonist activity”. Further, the “inhibition of tamoxifen partial agonist activity” value in the assay with ER (assayed in vitro) is “inhibits tamoxifen partial agonist activity under all conditions examined”.
As to `CC(=O)[C@H]1CC[C@H]2[C@@H]3CCC4=CC(=O)CC[C@]4(C)[C@H]3CC[C@]12C` [progesterone], the “binding pattern of the probes (fingerprint) compared with buffer” value on ERα [2] was “indistinguishable from that produced by buffer”.
Turning to GHEPLTLLERLLMDDKQAV [Peptide F6], the “Peptide Interactions with ER Alpha, beta-galactosidase units, value” amounted to 20267 MOD/min/mg in assay [3] (4-hydroxy Tamoxifen), 38883 MOD/min/mg in assay [3] (Estradiol), 30983 MOD/min/mg in assay [3] (No Addition) and 11947 MOD/min/mg in assay [3] (Tamoxifen Citrate). Moreover, the “affinity for ERα” value in the assay with full length ER-α (affinity-selected peptide) is on record as “high affinity”.
With SSEYCFYWDSAHCSR [α I], the “binding to the full length protein” value with full length ER was “binds only to the full length protein”.
Take SSNHQSRLIELLSR [ER4]: the “binding to ligand occupied ER” value in the assay with full length ER-α (agonist, partial agonist or antagonist occupied ER) was “binds to agonist occupied ER but not partial agonist- or antagonist-occupied ER”.
With SSVTKKALTIAKDSR, the “binding of ER in presence of estradiol” value in the assay with ERα [4] was “weak binders”.
On the same count and under the same terms, the same measure for SSYQWETHSDKWRSR: “weak binders”.
